Measurements reported in patent US20220003777A1 (Stanford University, published 2022).

Molecular target: T1, Secreted Protease of C1 Esterase Inhibitor (StcE), recombinant N-terminal His-tagged (Escherichia coli O157:H7, UniProt O82882 36-898)
T1 construct: also called mucinase
T1 sequence: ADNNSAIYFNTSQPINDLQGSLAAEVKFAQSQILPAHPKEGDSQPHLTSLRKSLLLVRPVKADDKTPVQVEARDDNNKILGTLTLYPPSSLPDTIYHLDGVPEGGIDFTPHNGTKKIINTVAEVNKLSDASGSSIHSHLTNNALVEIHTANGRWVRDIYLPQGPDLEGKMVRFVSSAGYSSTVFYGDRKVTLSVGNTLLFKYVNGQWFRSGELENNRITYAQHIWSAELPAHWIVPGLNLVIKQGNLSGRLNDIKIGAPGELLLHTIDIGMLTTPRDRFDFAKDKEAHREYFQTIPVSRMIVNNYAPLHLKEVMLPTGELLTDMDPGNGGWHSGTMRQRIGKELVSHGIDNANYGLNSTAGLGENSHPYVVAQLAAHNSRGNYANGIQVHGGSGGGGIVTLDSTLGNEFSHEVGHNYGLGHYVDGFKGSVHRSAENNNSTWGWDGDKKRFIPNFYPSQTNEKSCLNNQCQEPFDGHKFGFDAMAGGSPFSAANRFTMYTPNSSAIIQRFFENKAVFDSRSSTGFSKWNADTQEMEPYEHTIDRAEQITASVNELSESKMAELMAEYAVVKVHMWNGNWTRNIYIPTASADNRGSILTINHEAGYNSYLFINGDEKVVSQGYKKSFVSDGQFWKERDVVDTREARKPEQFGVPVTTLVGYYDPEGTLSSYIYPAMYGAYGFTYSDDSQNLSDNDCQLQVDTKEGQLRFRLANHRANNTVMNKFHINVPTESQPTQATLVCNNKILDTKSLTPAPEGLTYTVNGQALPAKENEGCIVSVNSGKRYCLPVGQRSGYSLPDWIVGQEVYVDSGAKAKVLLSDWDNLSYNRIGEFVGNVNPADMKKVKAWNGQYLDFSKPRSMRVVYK
Test: pull-down with StcE conjugated to POROS AL beads, EDTA present, silver stain

B1: C1 esterase inhibitor, human plasma-derived (other)
chain: NPNATSSSSQDPESLQDRGEGKVATTVISKMLFVEPILEVSSLPTTNSTTNSATKITANTTDEPTTQPTTEPTTQPTIQPTQPTTQLPTDSPTQPTTGSFCPGPVTLCSDLESHSTEAVLGDALVDFSLKLYHAFSAMKKVETNMAFSPFSIASLLTQVLLGAGENTKTNLESILSYPKDFTCVHQALKGFTTKGVTSVSQIFHSPDLAIRDTFVNASRTLYSSSPRVLSNNSDANLELINTWVAKNTNNKISRLLDSLPSDTRLVLLNAIYLSAKWKTTFDPKKTRMEPFHFKNSVIKVPMMNSKKYPVAHFIDQTLKAKVGQLQLSHNLSLVILVPQNLKHRLEDMEQALSPSVFKAIMEKLEMSKFQPTLLTLPRIKVTTSQDMLSIMEKLEFFDFSYDLNLCGLTEDPDLQVSAMQHQTVLELTETGVEAAAASAISVARTLLVFEVQQPFLFVLWDQQHKFPVFMGRVYDPRA
notes: Printed as C11NH throughout (OCR of C1INH); Native glycosylated protein; also called C11NH; C1-INH
- binding result: binds
